Assay results published in article PMC10194873.

Assays:
[1] = target: CagI N-terminal domain (CagI^N) (Helicobacter pylori strain 26695); assay: SEC-MALS
[2] = target: CagI N-terminal domain (CagI^N) (Helicobacter pylori strain 26695); assay: SEC-SAXS
[3] = target: CagI (untagged, residues 21 to 381) (Helicobacter pylori strain 26695); assay: SEC-MALS
[4] = target: CagI with a C-terminal strep-tag (residues 21-381) (Helicobacter pylori strain 26695); assay: SEC-MALS

With “CagI N-terminal domain (CagI^N) (domain or fragment)” the stoichiometry N [1] was 2 and the stoichiometry N [2] was 2.
In the case of “CagI (untagged, residues 21 to 381) (natural protein)”, the stoichiometry N [3] is reported as 2.
Substance “CagI with a C-terminal strep-tag (residues 21-381) (natural protein)” has a stoichiometry N [4] of 2.
